The text below walks through data of publication PMC11109247.

In general, stoichiometry N refers to the number of molecules, sites or subunits per partner or assembly.

The target in assay [1] is ephrinB2-Fc chimaera (human ephrin-B2 residues 1-229, IEGRMD linker, human IgG1 residues 100-330) (human) (UniProt P52799). Description: SDS-PAGE without reduction and boiling.
Assay [2] deals with ephrinB3-Fc chimaera (human ephrin-B3 residues 28-224, IEGRMD linker, human IgG1 residues 100-330) (human) (UniProt Q15768). Description: SDS-PAGE without reduction and boiling.
For assay [3], the target named is soluble NiVMY G ectodomain used for structural determination (residues 72-602, His tag) (Nipah virus Malaysia (NiVMY)) (UniProt Q9IH62). Description: negative-stain electron microscopy; soluble NiVMY G ectodomain alone.

Sequence of ephrinB2-Fc chimaera (human ephrin-B2 residues 1-229, IEGRMD linker, human IgG1 residues 100-330) (P52799 28-229): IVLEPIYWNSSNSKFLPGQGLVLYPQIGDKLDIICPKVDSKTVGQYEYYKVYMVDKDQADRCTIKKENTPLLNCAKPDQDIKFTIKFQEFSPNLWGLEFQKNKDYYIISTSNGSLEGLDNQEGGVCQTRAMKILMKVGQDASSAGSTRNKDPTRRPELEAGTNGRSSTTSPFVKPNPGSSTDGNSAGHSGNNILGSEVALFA
Sequence of ephrinB3-Fc chimaera (human ephrin-B3 residues 28-224, IEGRMD linker, human IgG1 residues 100-330) (Q15768 28-224): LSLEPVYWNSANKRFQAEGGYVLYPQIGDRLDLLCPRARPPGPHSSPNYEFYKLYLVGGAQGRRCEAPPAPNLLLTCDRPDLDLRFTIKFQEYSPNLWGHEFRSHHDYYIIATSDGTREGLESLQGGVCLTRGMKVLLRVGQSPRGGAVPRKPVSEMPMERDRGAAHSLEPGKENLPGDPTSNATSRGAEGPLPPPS
Sequence of soluble NiVMY G ectodomain used for structural determination (residues 72-602, His tag) (Q9IH62 72-602): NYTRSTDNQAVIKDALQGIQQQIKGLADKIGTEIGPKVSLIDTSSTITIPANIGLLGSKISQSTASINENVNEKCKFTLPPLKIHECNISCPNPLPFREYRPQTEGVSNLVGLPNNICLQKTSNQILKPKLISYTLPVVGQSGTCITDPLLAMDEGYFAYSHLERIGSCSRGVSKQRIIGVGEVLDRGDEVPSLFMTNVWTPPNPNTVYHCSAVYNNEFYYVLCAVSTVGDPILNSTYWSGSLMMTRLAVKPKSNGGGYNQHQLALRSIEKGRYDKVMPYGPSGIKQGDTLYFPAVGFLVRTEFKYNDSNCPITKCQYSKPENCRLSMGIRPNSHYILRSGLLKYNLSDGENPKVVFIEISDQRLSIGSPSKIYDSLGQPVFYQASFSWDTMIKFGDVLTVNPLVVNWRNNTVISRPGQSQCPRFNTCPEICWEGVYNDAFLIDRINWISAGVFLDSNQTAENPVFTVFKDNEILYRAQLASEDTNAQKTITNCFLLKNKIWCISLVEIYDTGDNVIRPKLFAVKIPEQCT

As for “ephrinB2-Fc chimaera (human ephrin-B2 residues 1-229, IEGRMD linker, human IgG1 residues 100-330) (from UniProt P52799 28-229) (Fc fusion)”, the stoichiometry N in assay [1] was determined as 2. Substance “ephrinB3-Fc chimaera (human ephrin-B3 residues 28-224, IEGRMD linker, human IgG1 residues 100-330) (from UniProt Q15768 28-224) (Fc fusion)” had a stoichiometry N in assay [2] of 2.

In assay [3], “soluble NiVMY G ectodomain used for structural determination (residues 72-602, His tag) (from UniProt Q9IH62 72-602) (domain or fragment)” returned a stoichiometry N of 4.
